Results as given in PMC4132743 (Nucleic Acids Research, 2014).

Columns and labels:
[1] = biological target: the molecule itself; test: SEC; Superdex 75 or Superdex 200 10/300 GL in buffer A (20 mM Tris-HCl pH 7.5, 40 mM NaCl, 5% glycerol), against molecular mass standards
[2] = biological target: the molecule itself; test: negative-staining electron microscopy; purified DnaT alone in buffer A (also after DNase I), 0.7% uranyl formate, FEI Tecnai F20
DnaT (wt, full length) [3] = biological target: T1, DnaT (wt, full length) (Escherichia coli K12, UniProt P0A8J2 1-179); test: fluorescence polarization; apparent; Hill h=2.5±0.6; Buffer A: 20 mM Tris-HCl pH 7.5, 40 mM NaCl, 5% v/v glycerol, 20 C; FPA 200 nM 5'-FAM DNA, Hill fit; EMSA 30 min at 20 C, gels in 0.5x TBE at 4 C; conditions: protein: recombinant; tags: His-MBP removed by TEV; label: 5'-FAM
T1 sequence: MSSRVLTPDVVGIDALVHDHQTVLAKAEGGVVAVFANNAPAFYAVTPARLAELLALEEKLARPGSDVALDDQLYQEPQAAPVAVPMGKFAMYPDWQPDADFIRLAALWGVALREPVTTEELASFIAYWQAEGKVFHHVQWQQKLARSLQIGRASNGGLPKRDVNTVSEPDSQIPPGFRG

DnaT (wt, full length) [4] = biological target: T1, DnaT (wt, full length); test: fluorescence polarization; apparent; Hill h=2.0±0.2; Buffer A: 20 mM Tris-HCl pH 7.5, 40 mM NaCl, 5% v/v glycerol, 20 C; FPA 200 nM 5'-FAM DNA, Hill fit; EMSA 30 min at 20 C, gels in 0.5x TBE at 4 C; conditions: protein: recombinant; tags: His-MBP removed by TEV; label: 5'-FAM
DnaT84-179 = biological target: T2, DnaT84-179 (Escherichia coli K12, UniProt P0A8J2 84-179); test: fluorescence polarization; apparent; Hill h=2.7±0.2; Buffer A: 20 mM Tris-HCl pH 7.5, 40 mM NaCl, 5% v/v glycerol, 20 C; FPA 200 nM 5'-FAM DNA, Hill fit; EMSA 30 min at 20 C, gels in 0.5x TBE at 4 C; conditions: protein: recombinant; tags: His-MBP removed by TEV; chain copies: 2; label: 5'-FAM
T2 sequence: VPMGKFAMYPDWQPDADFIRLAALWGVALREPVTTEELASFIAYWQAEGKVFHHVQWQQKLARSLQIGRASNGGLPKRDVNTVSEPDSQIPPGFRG

DnaT (wt, full length) [5] = biological target: T1, DnaT (wt, full length); test: fluorescence polarization; apparent; Hill h=3.6±0.3; Buffer A: 20 mM Tris-HCl pH 7.5, 40 mM NaCl, 5% v/v glycerol, 20 C; FPA 200 nM 5'-FAM DNA, Hill fit; EMSA 30 min at 20 C, gels in 0.5x TBE at 4 C; conditions: protein: recombinant; tags: His-MBP removed by TEV; label: 5'-FAM
DnaT84-153 = biological target: T3, DnaT84-153 (Escherichia coli K12, UniProt P0A8J2 84-153); test: fluorescence polarization; apparent; Hill h=2.1±0.2; Buffer A: 20 mM Tris-HCl pH 7.5, 40 mM NaCl, 5% v/v glycerol, 20 C; FPA 200 nM 5'-FAM DNA, Hill fit; EMSA 30 min at 20 C, gels in 0.5x TBE at 4 C; conditions: protein: recombinant; tags: His-MBP removed by TEV; label: 5'-FAM
T3 sequence: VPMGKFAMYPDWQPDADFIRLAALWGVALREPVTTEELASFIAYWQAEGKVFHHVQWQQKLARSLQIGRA

DnaT (wt, full length) [6] = biological target: T1, DnaT (wt, full length); test: fluorescence polarization; apparent; Hill h=1.8±0.2; Buffer A: 20 mM Tris-HCl pH 7.5, 40 mM NaCl, 5% v/v glycerol, 20 C; FPA 200 nM 5'-FAM DNA, Hill fit; EMSA 30 min at 20 C, gels in 0.5x TBE at 4 C; conditions: protein: recombinant; tags: His-MBP removed by TEV; label: 5'-FAM
DnaT (wt, full length) [7] = biological target: T1, DnaT (wt, full length); test: EMSA; 20 uM DNA; Buffer A: 20 mM Tris-HCl pH 7.5, 40 mM NaCl, 5% v/v glycerol, 20 C; FPA 200 nM 5'-FAM DNA, Hill fit; EMSA 30 min at 20 C, gels in 0.5x TBE at 4 C; conditions: protein: recombinant; tags: His-MBP removed by TEV
DnaT (wt, full length) [8] = biological target: T1, DnaT (wt, full length); test: fluorescence polarization; apparent; Hill h=2.3±0.3; Buffer A: 20 mM Tris-HCl pH 7.5, 40 mM NaCl, 5% v/v glycerol, 20 C; FPA 200 nM 5'-FAM DNA, Hill fit; EMSA 30 min at 20 C, gels in 0.5x TBE at 4 C; conditions: protein: recombinant; tags: His-MBP removed by TEV; label: 5'-FAM
DnaT (wt, full length) [9] = biological target: T1, DnaT (wt, full length); test: fluorescence polarization; apparent; Hill h=1.6±0.2; Buffer A: 20 mM Tris-HCl pH 7.5, 40 mM NaCl, 5% v/v glycerol, 20 C; FPA 200 nM 5'-FAM DNA, Hill fit; EMSA 30 min at 20 C, gels in 0.5x TBE at 4 C; conditions: protein: recombinant; tags: His-MBP removed by TEV; label: 5'-FAM
DnaT (wt, full length) [10] = biological target: T1, DnaT (wt, full length); test: fluorescence polarization; apparent; Hill h=1.8±0.3; Buffer A: 20 mM Tris-HCl pH 7.5, 40 mM NaCl, 5% v/v glycerol, 20 C; FPA 200 nM 5'-FAM DNA, Hill fit; EMSA 30 min at 20 C, gels in 0.5x TBE at 4 C; conditions: protein: recombinant; tags: His-MBP removed by TEV; label: 5'-FAM
DnaT (wt, full length) [11] = biological target: T1, DnaT (wt, full length); test: fluorescence polarization; apparent; Hill h=2.3±0.2; Buffer A: 20 mM Tris-HCl pH 7.5, 40 mM NaCl, 5% v/v glycerol, 20 C; FPA 200 nM 5'-FAM DNA, Hill fit; EMSA 30 min at 20 C, gels in 0.5x TBE at 4 C; conditions: protein: recombinant; tags: His-MBP removed by TEV; label: 5'-FAM

B1: DnaT F135A (natural protein, Escherichia coli (strain K12), UniProt P0A8J2 1-179, looked up)
chain: MSSRVLTPDVVGIDALVHDHQTVLAKAEGGVVAVFANNAPAFYAVTPARLAELLALEEKLARPGSDVALDDQLYQEPQAAPVAVPMGKFAMYPDWQPDADFIRLAALWGVALREPVTTEELASFIAYWQAEGKVAHHVQWQQKLARSLQIGRASNGGLPKRDVNTVSEPDSQIPPGFRG
notes: E. coli K12 DnaT, made from the wt-DnaT vector by site-directed mutagenesis; source: E. coli BL21 (DE3), purified as the wild type; not shown: His, N-terminal, cleaved; MBP, N-terminal, cleaved
B1: binds [1].

B2: DnaT Y127A/W128A double mutant (natural protein, Escherichia coli (strain K12), UniProt P0A8J2 1-179, looked up)
chain: MSSRVLTPDVVGIDALVHDHQTVLAKAEGGVVAVFANNAPAFYAVTPARLAELLALEEKLARPGSDVALDDQLYQEPQAAPVAVPMGKFAMYPDWQPDADFIRLAALWGVALREPVTTEELASFIAAAQAEGKVFHHVQWQQKLARSLQIGRASNGGLPKRDVNTVSEPDSQIPPGFRG
notes: as for B1
B2: binds [1].

B3: DnaT (full-length, wild type) (natural protein, Escherichia coli (strain K12), UniProt P0A8J2 1-179, looked up)
chain: MSSRVLTPDVVGIDALVHDHQTVLAKAEGGVVAVFANNAPAFYAVTPARLAELLALEEKLARPGSDVALDDQLYQEPQAAPVAVPMGKFAMYPDWQPDADFIRLAALWGVALREPVTTEELASFIAYWQAEGKVFHHVQWQQKLARSLQIGRASNGGLPKRDVNTVSEPDSQIPPGFRG
notes: E. coli K12 DnaT, amplified from genomic DNA; also called wt-DnaT; DnaT-FL; source: E. coli BL21 (DE3), purified (Ni-chelating resin, TEV digestion, HisTrap HP, HiTrap DEAE FF, Superdex 200); not shown: His, N-terminal, cleaved; MBP, N-terminal, cleaved
B3: binds [2].

B4: DnaT^84–179 (N-terminal-truncated DnaT) (domain or fragment, Escherichia coli (strain K12), UniProt P0A8J2 84-179, looked up)
chain: VPMGKFAMYPDWQPDADFIRLAALWGVALREPVTTEELASFIAYWQAEGKVFHHVQWQQKLARSLQIGRASNGGLPKRDVNTVSEPDSQIPPGFRG
notes: Dimer in solution by size-exclusion chromatography (see the N row); source: E. coli BL21 (DE3), purified (Ni-chelating resin, TEV digestion, HisTrap HP, HiTrap DEAE FF, Superdex 200); not shown: His, N-terminal, cleaved; MBP, N-terminal, cleaved
With B4 the “stoichiometry N” value [1] was 2.

B5: DnaT^84–153 (N- and C-terminal-truncated DnaT, recombinant fragment) (domain or fragment, Escherichia coli (strain K12), UniProt P0A8J2 84-153, looked up)
chain: VPMGKFAMYPDWQPDADFIRLAALWGVALREPVTTEELASFIAYWQAEGKVFHHVQWQQKLARSLQIGRA
notes: as for B4
For B5, the “stoichiometry N” value [1] was 2.

B6: DnaT K133A (natural protein, Escherichia coli (strain K12), UniProt P0A8J2 1-179, looked up)
chain: MSSRVLTPDVVGIDALVHDHQTVLAKAEGGVVAVFANNAPAFYAVTPARLAELLALEEKLARPGSDVALDDQLYQEPQAAPVAVPMGKFAMYPDWQPDADFIRLAALWGVALREPVTTEELASFIAYWQAEGAVFHHVQWQQKLARSLQIGRASNGGLPKRDVNTVSEPDSQIPPGFRG
notes: as for B1
B6: binds [1].

B7: DnaT K143A (natural protein, Escherichia coli (strain K12), UniProt P0A8J2 1-179, looked up)
chain: MSSRVLTPDVVGIDALVHDHQTVLAKAEGGVVAVFANNAPAFYAVTPARLAELLALEEKLARPGSDVALDDQLYQEPQAAPVAVPMGKFAMYPDWQPDADFIRLAALWGVALREPVTTEELASFIAYWQAEGKVFHHVQWQQALARSLQIGRASNGGLPKRDVNTVSEPDSQIPPGFRG
notes: as for B1
B7: binds [1].

B8: DnaT R146A (natural protein, Escherichia coli (strain K12), UniProt P0A8J2 1-179, looked up)
chain: MSSRVLTPDVVGIDALVHDHQTVLAKAEGGVVAVFANNAPAFYAVTPARLAELLALEEKLARPGSDVALDDQLYQEPQAAPVAVPMGKFAMYPDWQPDADFIRLAALWGVALREPVTTEELASFIAYWQAEGKVFHHVQWQQKLAASLQIGRASNGGLPKRDVNTVSEPDSQIPPGFRG
notes: as for B1
B8: binds [1].

B9: DnaT Y127A (natural protein, Escherichia coli (strain K12), UniProt P0A8J2 1-179, looked up)
chain: MSSRVLTPDVVGIDALVHDHQTVLAKAEGGVVAVFANNAPAFYAVTPARLAELLALEEKLARPGSDVALDDQLYQEPQAAPVAVPMGKFAMYPDWQPDADFIRLAALWGVALREPVTTEELASFIAAWQAEGKVFHHVQWQQKLARSLQIGRASNGGLPKRDVNTVSEPDSQIPPGFRG
notes: as for B1
B9: binds [1].

B10: DnaT W128A (natural protein, Escherichia coli (strain K12), UniProt P0A8J2 1-179, looked up)
chain: MSSRVLTPDVVGIDALVHDHQTVLAKAEGGVVAVFANNAPAFYAVTPARLAELLALEEKLARPGSDVALDDQLYQEPQAAPVAVPMGKFAMYPDWQPDADFIRLAALWGVALREPVTTEELASFIAYAQAEGKVFHHVQWQQKLARSLQIGRASNGGLPKRDVNTVSEPDSQIPPGFRG
notes: as for B1
B10: binds [1].

In the case of AAAAAAAAAAAAAAA (ssDNA) [5F-dA15], the Kd (DnaT (wt, full length) [3]) is reported as 46.7 ± 6.87 µM.

With TTTTTTTTTTTTTTT (ssDNA) [5F-dT15] the Kd (DnaT (wt, full length) [4]) was 16.2 ± 1.63 µM.

With TTTTTTTTTTTTTTTTTTTTTTTTTTTTTT (ssDNA) [5F-dT30] the Kd (DnaT84-179) was 9.87 ± 0.32 µM, the Kd (DnaT (wt, full length) [5]) was 12.9 ± 0.57 µM and the Kd (DnaT84-153) was 27.1 ± 2.3 µM.

In the case of AAAAAAAAAAAAAAAAAAAAAAAAAAAAAA (ssDNA) [5F-dA30], the Kd (DnaT (wt, full length) [6]) is reported as 39.2 ± 3.85 µM.

TTTTTTTTTT (ssDNA) [dT10]: binds (DnaT (wt, full length) [7]).

Binder CACACACACACACACACACACACACACACA (ssDNA) [5F-d(CA)15] has a Kd (DnaT (wt, full length) [8]) of 31.5 ± 3.6 µM.

Binder TGTGTGTGTGTGTGTGTGTGTGTGTGTGTG (ssDNA) [5F-d(TG)15] has a Kd (DnaT (wt, full length) [9]) of 1.3 ± 0.11 µM.

Binder TGGTGGTGGTGGTGGTGGTGGTGGTGGTGG (ssDNA) [5F-d(TGG)10] has a Kd (DnaT (wt, full length) [10]) of 2.76 ± 0.28 µM.

In the case of TGGGTGGGTGGGTGGGTGGGTGGGTGGG (ssDNA) [5F-d(TGGG)7], the Kd (DnaT (wt, full length) [11]) is reported as 0.597 ± 0.02 µM.
